According to patent publication US10131920B2, “Nucleic acid molecules” (MEDIMMUNE LIMITED, priority 2013, dated 2018):
Where a chain is given by its changes, count along the chain named.

B1: 7SL WT tRNA: WT tRNApyl downstream of the 7SL promoter 5′ region (nucleic acid)
DNA: CCCAGTTGATGACGTCACCATACCACAGCTTCTAGTGCTATTCTGCGCCGGTATCCGACCACCAGGAAACCTGATCATGTAGATCGAATGGACTCTAAATCCGTTCAGCCGGGTTAGATTCCCGGGGTTTCCGGACAAGTGCGGTTTTT
modifications: Synthetic sequence 7SL tRNA-WT construct
notes: WT tRNApyl downstream of the 7SL promoter 5′ region
B2: 7SL B tRNA: tRNA-B downstream of the 7SL promoter 5′ region (nucleic acid)
DNA: B1 DNA with A116C
modifications: Synthetic sequence 7SL tRNA-B construct
notes: tRNA-B downstream of the 7SL promoter 5′ region

Legend:
[1] = test system: GFPY40 reporter (GFP containing an amber codon) in HEK293 cells stably expressing pylRS; test: Amber suppression-dependent GFP expression (GFPY40 reporter), transient transfection, flow cytometry; format: cell-based; conditions: for GFP MFI, FIG. 8: 1 ug PCR product of each construct, lys azide nnAA; for GFP MFI, FIG. 8 / GFP MFI, FIG. 10: three days; for GFP MFI, FIG. 10: cells stably expressing WTpylRS, lys azide
Procedure: (§1) To assess the function of the tRNA variants, an in vitro assay was established where cells are transiently transfected with a tRNA construct and a reporter construct encoding GFP containing an amber codon interrupting its reading frame (GFPY40). HEK293 cells stably expressing pylRS were transiently transfected with various tRNA constructs (1 ug) and the GFPY40 reporter (1 ug). In the absence of elements that support amber suppression, a truncated GFP protein is generated and the cell is not fluorescent. However, the introduction of a functional tRNA and the presence of a nnAA that supports amber suppression allows for the production of full length GFP resulting in fluorescent cells. The level of GFP expression reflects the efficiency of amber suppression and is quantified by flow cytometry. tRNA genes encoding wild type tRNApyl (WT tRNA), or containing mutations in the B-box (B tRNA—SEQ ID No 9), in both the A and B box (A2B tRNA—SEQ ID No 10), or in the A box (A1 tRNA-SEQ ID No 7; or A2 tRNA SEQ ID No 11), all under control of the H1 promoter were generated by site directed mutagenesis and assayed. The H1 promoter ensured that the variants were expressed and allowed us to examine the functional effects of the mutations introduced into the tRNA genes. In addition a sample transfected with GFPY40 alone was generated to establish background GFP levels. The transfected cells were grown in presence of the aminoacid analogue lys azide (2 mM) and incubated for 18 hours. GFP fluorescence was then assayed by flow cytometry and mean fluorescence intensity determined for each sample. Data were analysed with FCS Express and the mean fluorescence intensity of each sample determined using markers that constrain the data set to cells showing fluorescence above negative controls.
To begin to assess whether the tRNA mutations can support expression of the tRNA we assayed tRNA constructs encoding the wild type tRNA in the absence of the H1 promoter. Constructs encoding wild type tRNApyl (WT tRNA) or containing mutations in the B-box (B tRNA—SEQ ID No 9) or in both the A and B box (A2B; A2B tRNA—SEQ ID No 10) were assayed using our in vitro amber suppression assay described above. WT tRNA under control of the H1 promoter (H1-tRNA) was used as a positive control, and in addition one sample was transfected only with the GFPY40 reporter to illustrate background amber suppression in the absence of tRNA. The transfected cells were exposed to 2 mM lys-azide nnAA and cells incubated for three days. GFP expression was examined by flow cytometry and mean fluorescence intensity determined.
Two copies of the WT, B, or A2B tRNA were cloned in tandem to generate a single vector containing two copies of WT, B, or A2B tRNA. To assess the effect of increased gene doses by these constructs, cells expressing WTpylRS were transiently transfected with the tRNA constructs and the GFPY40 reporter construct and GFP expression assayed after two days.
The activity of each construct was assessed by transient transfection into cells stably expressing WT pylRS with the GFPY40 reporter as described above. For this experiment, 1 ug of a PCR product encoding each of the indicated constructs was used. In each case, cells were exposed to the lys azide nnAA for three days and GFP levels assayed by flow cytometry. Mean fluorescence intensities were determined for each sample and plotted (FIG. 8).

[2] = test system: GFPY40 reporter in 3H7 cells; test: Amber suppression-dependent GFP expression (GFPY40 reporter), transient transfection of 3H7 cells, flow cytometry; format: cell-based; conditions: 1 ug GFPY40 and 1 ug tRNA expression vector, lys-azide, three days
Procedure: as §1, with “controls. […] The constructs thus are functional and may contain the necessary genetic sequence to enable the expression of the tRNA also in the absence of an upstream promoter element such as the H1 promoter.” for “controls.”
Having established that the B mutation introduced into the pyltRNA sequence enabled expression of the tRNA that supported amber suppression we then asked whether this mutation affected the orthogonality of the tRNA and led to the incorporation of natural amino acids. To do this 3H7 cells were transiently transfected with expression constructs encoding WT-tRNA, B-tRNA, H1-tRNA and H1-B tRNA along with the GFPY40 reporter. Transfected cells were grown in the presence of 2 mM lys azide or absence of nnAA as indicated (FIG. 6), and GFP expression assessed by flow cytometry after three days. In addition, a sample transfected only with GFPY40 was examined to determine background amber suppression levels in the absence of tRNA. […] A comparison of GFP expression between the WT tRNA (MFI 33,781) and tRNA B (232,505) lacking extragenic promoter elements confirms that the B mutation generates a functional intragenic promoter. Indeed, the B tRNA construct enabled a seven-fold increase in the level of amber suppression dependent expression of GFP over WT tRNA.
We also tested the utility of a bicistronic tRNA expression construct for its ability to express tRNApyl. Here, the murine tRNA Glu and tRNA Asp were utilized. In each case, multiple repeats of the constructs were generated to increase activity (3×Glu-pyl and 2×Asp-pyl). Here, 3H7 cells were transiently transfected with 1 ug of the reporter construct GFPY40 and 1 ug of the indicated tRNA expression vectors (FIG. 11) and incubated with lys-azide for three days. Data were collected by flow cytometry and mean fluorescence intensities for each sample were plotted. […] The construct consisting of the 7SL WT tRNA (MFI=312) was included as a metric for low efficiency. In addition cell lines containing only the GFPY40 reporter were used as negative controls (MFI=0).

| Molecule | GFP MFI, FIG. 8 [1] | GFP MFI, FIG. 10 [1] | GFP MFI, FIG. 11 [2] | GFP MFI, FIG. 9 ([1]; 1 ug GFPY40 reporter and 1 ug tRNA expression plasmid) |
| --- | --- | --- | --- | --- |
| B1 | 106,075 | 312 | 312 |  |
| B2 | 265,396 | 520 | 520 | 167,024 |
